Results reported in US20230035798A1 (CAPELLA BIOSCIENCE, published 2023).
Where a chain is given by its changes, count along the chain named.

T1: membrane LIGHT S193A (human, UniProt O43557 1-240)
T1 chain: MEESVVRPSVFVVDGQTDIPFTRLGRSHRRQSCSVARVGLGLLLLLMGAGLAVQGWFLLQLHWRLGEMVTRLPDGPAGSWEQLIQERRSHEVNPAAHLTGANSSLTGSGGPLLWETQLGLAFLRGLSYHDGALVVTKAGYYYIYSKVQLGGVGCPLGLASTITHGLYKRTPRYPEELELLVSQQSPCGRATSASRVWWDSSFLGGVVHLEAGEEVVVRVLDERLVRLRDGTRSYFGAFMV

B1: 3A07 (antibody, human IgG4, V domains shown)
VH: QVQLQQSGAELVRPGAPVTLSCKASDYTFTDSEIHWVKQTPVHGLEWIGEIDPETGGTAYNQKFKGKATLTADKSSSTAYMELRSLTSEDSAVYYCSRETDYFFDYWGQGTTLTVSS
VL: ENVLTQSPAIMSASPGEKVTMTCSASSSVSYMYWYQQRPGSSPRLLIYDTSNLASGVPVRFSGSGSGTSYSLTISRMEAEDAATYYCQQWSSYPLTFGSGTKLEIK
notes: chimeric human IgG4 (S-to-P, L-to-E at 248), human CL; also called Parental 3A07
B2: 3B04 (antibody, human IgG4, V domains shown)
VH: B1 VH with S7P, P17S, D26G, S32Y, I34M, G57D, N61S, L83F
VL: DIQMTQTPASLSASVGETVTITCGASENIYGALNWYQRKQGKSPQLLIYGATNLADGMSSRFSGSGSGRQYSLKISSLHPDDFATYYCQNVLTTPWTFGGGTKLEIKR
notes: chimeric: mouse variable domains on human IgG4 HC (S-to-P and L-to-E at 248) and human CL; also called Parental 3B04; 3B04 chimeric
B3: 3D12 (antibody, human IgG4, V domains shown)
VH: B1 VH with S7P, P17S
VL: B2 VL with T7S, F83V, T93S
notes: chimeric: mouse variable domains on human IgG4 HC (S-to-P and L-to-E at 248) and human CL; also called Parental 3D12; 3D12 chimeric
B4: 3C10 (antibody, human IgG4, V domains shown)
VH: B1 VH with Q1E, P17S
VL: B1 VL with E1D, N2V, L4M, S7T, R38K, S99A, I105L
notes: chimeric human IgG4 (S-to-P, L-to-E at 248), human CL; also called Parental 3C10
B5: 3E09 (antibody, V domains shown)
VH: EVQLVESGGGLVKPGGSLKLSCEASGFTFSDYYMYWVRQTPEKRLEWVAAIGDGGIYTYYADTVKGRFTISRDNAKNILYLQMSSLKSNDTAMYYCARGTGDGFAYWGQGTLVTVS
VL: DIVLTQSPASLAVSLGQRATISCRASESVDSYGNSFMHWYQQKPGQPPKLLIYLASNLESGVPARFSGSGSRTDFTLTIDPVEADDAATYYCQQNNEDPYTFGGGTKLEIK
notes: chimeric human IgG4 (S-to-P, L-to-E at 248), human CL; also called Parental 3E09
B6: 2E08 (antibody, human IgG4, V domains shown)
VH: QVQMKESGAELVRPGVSVKISCKGSGYTFTDYAIHWVKQSHAKTLEWIGVISTYYGDASYNQKFKGKATMTVDKSSSTAYMELARLTSDDSAIYYCARSRGEYGNYDAMDYWGQGTSVTVSS
VL: DIVLTQSPASLAVSLGQRATISCKASQSVDYDGDSYMNWYQQKPGQPPKLLIYAASNLESGIPARFSGSGSGTDFTLNIHPVEEEDAATYYCQQSNEDPLTFGAGTKLELK
notes: chimeric human IgG4 (S-to-P, L-to-E at 248), human CL; also called Parental 2E08
B7: 2B11 (antibody, human IgG4, V domains shown)
VH: B6 VH with Q1E, M4L, K5V, T44S, D89E
VL: B5 VL with L54R, V62I, D80N, A87V, N95S
notes: chimeric human IgG4 (S-to-P, L-to-E at 248), human CL; also called Parental 2B11

Molecular target: T1, membrane LIGHT S193A
Assay: flow cytometry, transfected HEK293FF, mAb at EC50
Description: The day of transfection the cells were seeded in a 24-well plate at 0.6×10⁶ cells/well. Lipofectamine 2000 (ThermoFisher scientific), 3 μl, was mixed with 50 μl OptiMEM medium (GIBCO) and then added to 50 μl Opti-MEM medium containing 3 ug plasmid DNA and incubated for 20 min at RT to form DNA-Lipofectamine 2000 complexes which were then added to the HEK293FF cells and incubated at 37° C., 5% CO₂ for 24 hours. For each construct, in duplicate, 0.60×10⁶ cells/well were used in a 96 well round bottom plate. Cells were centrifuged for 3 minutes at 300×g at 4° C., the supernatant discarded and the cells washed with 150 μl FACS buffer (0.5% FBS in phosphate buffered saline). This process was repeated 3 times. […] The wells were washed 3 times as above and 50 μl/well of goat anti-human IgG FITC (1:1500 dilution in FACS buffer, SIGMA F9512-2ML) or goat anti-mouse APC (1/500 dilution in FACS buffer, BDBioscience 550826), as appropriate, was added to the wells and incubated for 30 min at 4° C. protected from the light, with shaking. The cells were then washed as above, resuspended in 100 μl of FACS buffer and binding of the antibodies to the constructs was measured using flow cytometry and a total of 10,000 cells were acquired for each sample. Controls of buffer and secondary antibody only as well as HEK293FF non transfected cells were also used.

Binder | binding, % of WT
B1 | 0%
B2 | 0%
B3 | 0%
B4 | 0%
B5 | 0%
B6 | 0%
B7 | 0%

molecular target: T2, human LIGHT (TNFSF14), full length, membrane-bound (214E allele) (human, UniProt O43557 1-240); assay: DcR3-His (1 nM) competition, EL4-LIGHT, flow cytometry; 100 nM
T2 construct: also called membrane LIGHT; human membrane LIGHT
Description: (§1) EL4-LIGHT cells (0.25×10⁶) were preincubated with anti-membrane LIGHT mAbs (0-300 nM) for 15 min at 4° C. followed by incubation with DcR3-His tagged (1 nM, Creative BioMart; ref: TNFRSF6B-552H, lot: 962512) for 30 min at 4° C. The samples were then incubated with mouse anti-histag antibody (diluted 1:500, Biolegend, cat. no. 652502) for 30 minutes at 4° C., followed by incubation with anti-mouse APC (dil 1:500, BDBiosciences, cat. no. 550826) for 30 minutes at 4° C. The tubes were washed three times after each of the detection antibody stages and flow cytometry analysis was performed. Specific mean fluorescence intensity (MFI) obtained from the binding of DcR3-His to LIGHT on EL4 cells were used to determine the levels of competition binding.
(§2) In humans, LIGHT is neutralized by DcR3, a unique soluble member of the TNFR superfamily, which tightly binds LIGHT (both soluble and membrane forms) and inhibits its interactions with HVEM and LTβR. A major binding determinant for DcR3 neutralization is the region T170-E178 on LIGHT (Liu et al. Structure 2014: 9; 1252-1262). […] In contrast the anti-LIGHT mAb F19, (from EP2292663) which binds both soluble LIGHT and membrane LIGHT equally well completely displaces DcR3 from binding to membrane LIGHT highlighting a surprising an important functional difference between the anti-membrane LIGHT mAbs of this invention and other neutralizing anti-LIGHT mAbs that have been raised against or screened against soluble LIGHT.
Target sequence in this assay (O43557 whole entry K214E): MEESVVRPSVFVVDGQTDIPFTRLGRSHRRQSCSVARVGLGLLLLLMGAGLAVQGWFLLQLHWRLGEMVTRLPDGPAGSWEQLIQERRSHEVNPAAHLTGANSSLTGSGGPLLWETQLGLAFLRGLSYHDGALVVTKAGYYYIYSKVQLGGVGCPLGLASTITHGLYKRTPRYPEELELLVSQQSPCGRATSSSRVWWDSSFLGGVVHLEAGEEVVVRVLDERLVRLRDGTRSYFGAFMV

Binder | DcR3-His binding, % of irrelevant mAb
B1 | 64.2%
B2 | 75.8%
B3 | 80.3%
B4 | 63.8%
B5 | 65%
B6 | 53.7%
B7 | 70.6%

molecular target: T2, human LIGHT (TNFSF14), full length, …; assay: DcR3-His (1 nM) competition, EL4-LIGHT, flow cytometry; 0.41 nM
Description: as §1, §2
Target sequence in this assay (O43557 whole entry K214E): as above

Binder | DcR3-His binding, % of irrelevant mAb
B1 | 102%
B2 | 94.8%
B3 | 99.4%
B4 | 124%
B5 | 94.2%
B6 | 107%
B7 | 114%

molecular target: T2, human LIGHT (TNFSF14), full length, …; assay: DcR3-His (1 nM) competition, EL4-LIGHT, flow cytometry; 11.1 nM
Description: as §1, §2

Binder | DcR3-His binding, % of irrelevant mAb
B1 | 75.8%
B2 | 78.3%
B3 | 61.1%
B4 | 83.6%
B5 | 71.1%
B6 | 85.7%
B7 | 77.5%

molecular target: T2, human LIGHT (TNFSF14), full length, …; assay: competition with biotin-LTβR-Fc, EL4-LIGHT cells, flow cytometry
Description: Biotin-LTβR-Fc and biotin-HVEM-Fc were prepared using a kit purchased from ThermoFisher (EZ-Link NHS-LC-Biotin; cat. no. 21336) according to the manufacturer's instructions. […] The diluent used was FACS buffer. The cells were washed 3 times with FACS buffer and biotin-LTβR-Fc and biotin-HVEM-Fc binding detection to cells was performed with streptavidin-APC (1:400; BioLegend cat. No. 405207) for 30 min at 4° C. and fluorescence read in the RL-1 channel. The anti-HEL mAb 2A11 was utilised as a background control.
The above experiment was repeated utilising LIGHT stably expressed on EL4-cells and the results depicted in Table 11B.
Target sequence in this assay (O43557 whole entry K214E): as above

Binder | IC50
B1 | 0.35 nM
B2 | 0.19 nM
B3 | 0.19 nM
B4 | 0.86 nM
B5 | 38 nM
B6 | 5.7 nM
B7 | 0.36 nM

molecular target: T2, human LIGHT (TNFSF14), full length, …; assay: competition with biotin-HVEM:Fc, HEK293FF LIGHT cells, flow cytometry
Description: (§3) The ability of the 7 chimeric mAbs to block biotin-HVEM:Fc and biotin-LTβR:Fc fusion proteins to cell surface expressed LIGHT using a flow cytometric based assay is shown in FIGS. 1A and 1B respectively. In these experiments, graded amounts of each antibody were added to the HEK293FF cells transiently transfected with LIGHT with a 50% saturating amount of the receptor fusion protein. As shown, each of the antibodies blocked either receptor fusion protein from binding LIGHT, in contrast to the irrelevant antibody control which had no effect on either Fc-receptor fusion protein binding. In each experiment, all antibodies blocked receptor binding in a dose dependent manner enabling analysis by non-linear regression to determine the IC50 dose as shown in Table 11A.
Target sequence in this assay (O43557 whole entry K214E): as above

Binder | IC50
B1 | 2.5 nM
B2 | 1.2 nM
B3 | 1 nM
B4 | 2.1 nM
B5 | 36.6 nM
B6 | 23.8 nM
B7 | 2.9 nM

molecular target: T2, human LIGHT (TNFSF14), full length, …; assay: competition with biotin-LTβR:Fc, HEK293FF LIGHT cells, flow cytometry
Description: as §3
Target sequence in this assay (O43557 whole entry K214E): as above

Binder | IC50
B1 | 1.4 nM
B2 | 1.1 nM
B3 | 0.6 nM
B4 | 1.9 nM
B5 | 12 nM
B6 | 14.4 nM
B7 | 2.1 nM
